Where a chain is given by its changes, count along the chain named. In names and notes the source's numbering stands. Several values for one entry are separate records, joined by “and”; a condition that tells them apart may be missing. Equal entries are not always repeated.
How the values were obtained:
[1] = Small-scale anaerobic C—H amination with purified enzymes, azide 1; assay type: biochemical; details: for Product (3) / TTN on substrate 1: 1% loading of hemin; for % ee: 0.1 mol % catalyst loading, (S−R)/(S+R)
Procedure, shortened: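 Purified P450 or P411 enzymes (0.1-0.5% catalyst loading) in 400 μL reactions of 0.1 M potassium phosphate pH 8.0 with a catalase/glucose oxidase oxygen-depletion system were made anaerobic under argon, given 10 μL of 80 mM arylsulfonyl azide in DMSO, and stirred 24 h at room temperature. After HCl quench and acetonitrile addition, sultam was quantified by HPLC at 220 nm against an internal standard; enantioselectivity was measured by chiral HPLC.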

[2] = Small-scale anaerobic C—H amination with purified enzymes, azide 4; assay type: biochemical
Protocol: Hemin also was capable of catalyzing this reaction when reduced with dithionite (Table 13).
Small scale reactions containing either 0.1% loading of ABC-CIS or ABC-T268A or 1% loading of hemin with azides 1, 4, or 6 according to standard procedures.
Small-scale reactions (400 μL) were conducted in 2 mL crimp vials (Agilent Technologies, San Diego, Calif.) containing buffer (0.1 M potassium phosphate pH 8.0), enzyme (0.1-0.5% catalyst loading) and oxygen depletion system (10× stock solution containing 14,000 U/mL catalase, 1,000 U/mL glucose oxidase dissolved in 0.1 M KPi pH 8.0). Enzyme (P450 or P411) solution and oxygen depletion mixture were added to the vial with a small stir bar before crimp-sealing. Portions of phosphate buffer (190 μL, 0.1 M, pH=8.0), glucose (40 μL, 250 mM) and NADPH (40 μL, 20 mM), or multiples thereof, were combined in a larger crimp sealed vial and degassed by sparging with argon for at least 5 min. In the meantime, the headspace of the sealed 2 mL reaction vial with the P450 solution was made anaerobic by flushing argon over the protein solution (with no bubbling). The buffer/reductant/glucose solution (270 μL) was syringed into the reaction vial with continuous argon purge of the vial headspace. An arylsulfonyl azide solution in DMSO (10 μL, 80 mM) was added to the reaction vial via a glass syringe, and the reaction was left stirring for 24 h at room temperature under positive argon pressure. Final concentrations of the reagents were typically: 2 mM arylsulfonyl azide, 2 mM NADPH, 25 mM glucose, 2 or 10 μM P450. Reactions were quenched by adding 30 μL 3 M HCl under argon. To the vials were then added acetonitrile (430 uL) and internal standard (o-toluenesulfonamide 10 mM in 50% acetonitrile 50% water, 1 mM final concentration). […] A portion (20 μL) of the supernatant was then analyzed by HPLC. […] Sultam formation was quantified comparison of integrated peak areas of internal standard and sultam at 220 nm to a calibration curve made using synthetically produced sultam and internal standard.

[3] = 0.1 mol % catalyst loading (2 μM), 2 mM azide 1, 2 mM NADPH, benzosultam 3
[4] = catalyst loading 0.5 mol %, NADPH, anaerobic

For hemin, the “Product (3) / TTN on substrate 1” value [1] was 3.1, the “Product (3) / TTN on substrate 1” value ([1]; listed as hemin) was 3 and the “% activity” value ([1]; CS-P450 + Hemin) was 0%. For the same molecule, the TTN ([1]; CS-P450 + Hemin (2 μM hemin)) was 0, the “stereochemical outcome of product 3” value ([1]; reaction with hemin) was “racemic” and the “activity on substrate 4” value ([2]; free hemin, 1% loading) was “no measurable activity”.

B1: P450BM3: wild-type cytochrome P450BM3 from Bacillus megaterium (SEQ ID NO: 1) (protein, listed as Bacillus megaterium)
chain: TIKEMPQPKTFGELKNLPLLNTDKPVQALMKIADELGEIFKFEAPGRVTRYLSSQRLIKEACDESRFDKNLSQALKFVRDFAGDGLFTSWTHEKNWKKAHNILLPSFSQQAMKGYHAMMVDIAVQLVQKWERLNADEHIEVPEDMTRLTLDTIGLCGFNYRFNSFYRDQPHPFITSMVRALDEAMNKLQRANPDDPAYDENKRQFQEDIKVMNDLVDKIIADRKASGEQSDDLLTHMLNGKDPETGEPLDDENIRYQIITFLIAGHETTSGLLSFALYFLVKNPHVLQKAAEEAARVLVDPVPSYKQVKQLKYVGMVLNEALRLWPTAPAFSLYAKEDTVLGGEYPLEKGDELMVLIPQLHRDKTIWGDDVEEFRPERFENPSAIPQHAFKPFGNGQRACIGQQFALHEATLVLGMMLKHFDFEDHTNYELDIKETLTLKPEGFVVKAKSKKIPLGGIPSPSTEQSAKKVRKKAENAHNTPLLVLYGSNMGTAEGTARDLADIAMSKGFAPQVATLDSHAGNLPREGAVLIVTASYNGHPPDNAKQFVDWLDQASADEVKGVRYSVFGCGDKNWATTYQKVPAFIDETLAAKGAENIADRGEADASDDFEGTYEEWREHMWSDVAAYFNLDIENSEDNKSTLSLQFVDSAADMPLAKMHGAFSTNVVASKELQQPGSARSTRHLEIELPKEASYQEGDHLGVIPRNYEGIVNRVTARFGLDASQQIRLEAEEEKLAHLPLAKTVSVEELLQYVELQDPVTRTQLRAMAAKTVCPPHKVELEALLEKQAYKEQVLAKRLTMLELLEKYPACEMKFSEFIALLPSIRPRYYSISSSPRVDEKQASITVSVVSGEAWSGYGEYKGIASNYLAELQEGDTITCFISTPQSEFTLPKDPETPLIMVGPGTGVAPFRGFVQARKQLKEQGQSLGEAHLYFGCRSPHEDYLYQEELENAQSEGIITLHTAFSRMPNQPKTYVQHVMEQDGKKLIELLDQGAHFYICGDGSQMAPAVEATLMKSYADVHQVSEADARLWLQQLEEKGRYAKDVWAG
modifications: cytochrome P450NADPH-P-450 reductase precursor, cytochrome P450 (BM3), CYP102A1
In the case of B1, the TTN [1, 3] is reported as 2.1 and the “TTN (C—H amination product 3)” value [1, 4] is reported as 4.

B2: BM3-T268A: P450BM3 variant: T268A (protein, listed as Bacillus megaterium)
chain: B1 chain with T268A
modifications: cytochrome P450NADPH-P-450 reductase precursor, cytochrome P450 (BM3), CYP102A1
With B2 the TTN [1, 3] was 15, the “% ee” value ([1]; benzosultam 3) was 36% and the “activity with reductant NADPH” value ([1]; NADPH (2 mM), 0.1 mol % loading, azide 1) was 22. For the same molecule, the “TTN (C—H amination product 3)” value [1, 4] was 28 and the “activity with reductant Dithionite” value ([1]; dithionite (2 mM), 0.1 mol % loading, azide 1) was 25.

B3: ABC-CIS: BM3-CIS + C400S (protein, listed as Bacillus megaterium)
chain: TIKEMPQPKTFGELKNLPLLNTDKPVQALMKIADELGEIFKFEAPGRVTRYLSSQRLIKEACDESRFDKNLSQALKFARDFAGDGLVTSWTHEKNWKKAHNILLPSFSQQAMKGYHAMMVDIAVQLVQKWERLNADEHIEVSEDMTRLTLDTIGLCGFNYRFNSFYRDQPHPFIISMVRALDEVMNKLQRANPDDPAYDENKRQFQEDIKVMNDLVDKIIADRKARGEQSDDLLTQMLNGKDPETGEPLDDGNIRYQIITFLIAGHEATSGLLSFALYFLVKNPHVLQKVAEEAARVLVDPVPSYKQVKQLKYVGMVLNEALRLWPTAPAFSLYAKEDTVLGGEYPLEKGDEVMVLIPQLHRDKTVWGDDVEEFRPERFENPSAIPQHAFKPFGNGQRASIGQQFALHEATLVLGMMLKHFDFEDHTNYELDIKETLTLKPKGFVVKAKSKKIPLGGIPSPSTEQSAKKVRKKAENAHNTPLLVLYGSNMGTAEGTARDLADIAMSKGFAPQVATLDSHAGNLPREGAVLIVTASYNGHPPDNAKQFVDWLDQASADEVKGVRYSVFGCGDKNWATTYQKVPAFIDETLAAKGAENIADRGEADASDDFEGTYEEWREHMWSDVAAYFNLDIENSEDNKSTLSLQFVDSAADMPLAKMHGAFSTNVVASKELQQPGSARSTRHLEIELPKEASYQEGDHLGVIPRNYEGIVNRVTARFGLDASQQIRLEAEEEKLAHLPLAKTVSVEELLQYVELQDPVTRTQLRAMAAKTVCPPHKVELEALLEKQAYKEQVLAKRLTMLELLEKYPACEMKFSEFIALLPSIRPRYYSISSSPRVDEKQASITVSVVSGEAWSGYGEYKGIASNYLAELQEGDTITCFISTPQSEFTLPKDPETPLIMVGPGTGVAPFRGFVQARKQLKEQGQSLGEAHLYFGCRSPHEDYLYQEELENAQSEGIITLHTAFSRMPNQPKTYVQHVMEQDGKKLIELLDQGAHFYICGDGSQMAPAVEATLMKSYADVHQVSEADARLWLQQLEEKGRYAKDVWAG
modifications: cytochrome P450NADPH-P-450 reductase precursor, cytochrome P450 (BM3), CYP102A1
notes: BM3-CIS + C400S
In the case of B3, the “Product (3)” value ([1]; 0.1% loading, azide 1, TTN) is reported as 310, the TTN [1, 3] is reported as 313 and 310 and the “% ee” value ([1]; benzosultam 3) is reported as 67%. For the same molecule, the TTN ([1]; [NADPH] 0 mM) was 0, the “[sultam]” value ([1]; [NADPH] 0 mM) was 0 mM and the TTN ([1]; [NADPH] 0.01 mM) was 27. The “[sultam]” value ([1]; [NADPH] 0.01 mM) was 0.053 mM, the TTN ([1]; [NADPH] 0.02 mM) was 82 and the “[sultam]” value ([1]; [NADPH] 0.02 mM) was 0.164 mM. The TTN ([1]; [NADPH] 0.1 mM) was 243, the “[sultam]” value ([1]; [NADPH] 0.1 mM) was 0.486 mM and the TTN ([1]; [NADPH] 2 mM) was 161. The “[sultam]” value ([1]; [NADPH] 2 mM, 0.1 mol % loading) was 0.322 mM, the “TTN (C—H amination product 3)” value [1, 4] was “over 140” and the “yield of 3 by HPLC” value [1, 4] was 73%. For the same molecule, the “Product (5)” value ([2]; 0.1% loading, azide 4) was 26.
